# From IntAct's records for PubMed 22064073
# B1: PAX-interacting protein 1 (Homo sapiens), Q6ZW49-1 (parent)
# chain: MVFLQNHVRFFLESLPAFLRVLIQAGALCWSLPELSQGEVGKGACPAEVGKHRDHLPSSDPVLMQAEASVVMCWVSSEDRSALWALVTFYGGDCQLTLNKKCTHLIVPEPKGEKYECALKRASIKIVTPDWVLDCVSEKTKKDEAFYHPRLIIYEEEEEEEEEEEEVENEEQDSQNEGSTDEKSSPASSQEGSPSGDQQFSPKSNTEKSKGELMFDDSSDSSPEKQERNLNWTPAEVPQLAAAKRRLPQGKEPGLINLCANVPPVPGNILPPEVRGNLMAAGQNLQSSERSEMIATWSPAVRTLRNITNNADIQQMNRPSNVAHILQTLSAPTKNLEQQVNHSQQGHTNANAVLFSQVKVTPETHMLQQQQQAQQQQQQHPVLHLQPQQIMQLQQQQQQQISQQPYPQQPPHPFSQQQQQQQQAHPHQFSQQQLQFPQQQLHPPQQLHRPQQQLQPFQQQHALQQQFHQLQQHQLQQQQLAQLQQQHSLLQQQQQQQIQQQQLQRMHQQQQQQQMQSQTAPHLSQTSQALQHQVPPQQPPQQQQQQQPPPSPQQHQLFGHDPAVEIPEEGFLLGCVFAIADYPEQMSDKQLLATWKRIIQAHGGTVDPTFTSRCTHLLCESQVSSAYAQAIRERKRCVTAHWLNTVLKKKKMVPPHRALHFPVAFPPGGKPCSQHIISVTGFVDSDRDDLKLMAYLAGAKYTGYLCRSNTVLICKEPTGLKYEKAKEWRIPCVNAQWLGDILLGNFEALRQIQYSRYTAFSLQDPFAPTQHLVLNLLDAWRVPLKVSAELLMSIRLPPKLKQNEVANVQPSSKRARIEDVPPPTKKLTPELTPFVLFTGFEPVQVQQYIKKLYILGGEVAESAQKCTHLIASKVTRTVKFLTAISVVKHIVTPEWLEECFRCQKFIDEQNYILRDAEAEVLFSFSLEESLKRAHVSPLFKAKYFYITPGICPSLSTMKAIVECAGGKVLSKQPSFRKLMEHKQNSSLSEIILISCENDLHLCREYFARGIDVHNAEFVLTGVLTQTLDYESYKFN
# Variants of: B1
# Details: with h2ax_human H2AX
row,Variant,effect of a mutation on the interaction
1,R876D,disrupting interaction

# Variants of: B1
# Details: with h2ax_human H2AX
# Remark: another data set of the same source
row,Variant,effect of a mutation on the interaction
1,T838A,disrupting interaction

# Variants of: B1
# Details: with h2ax_human H2AX
# Remark: another data set of the same source
row,Variant,effect of a mutation on the interaction
1,K879M,disrupting interaction

# Variants of: B1
# Details: with h2ax_human H2AX
# Remark: another data set of the same source
row,Variant,effect of a mutation on the interaction
1,E1016A,decreasing interaction

# Variants of: B1
# Details: with h2ax_human H2AX
# Remark: another data set of the same source
row,Variant,effect of a mutation on the interaction
1,T1020A,increasing interaction
